Experimental findings from publication doi:10.1101/2021.07.02.450934 are described below.

The target of the experiment is wild-type Pseudomonas testosteroni ketosteroid isomerase (KSI) (Pseudomonas testosteroni). The experiment in a line: SEC. On the technique in general: In gel filtration, larger molecules generally elute earlier.

The stoichiometry N is the number of molecules, sites or subunits per partner or assembly. Turning to “wild-type Pseudomonas testosteroni ketosteroid isomerase (KSI) (enzyme)”, the stoichiometry N stood at 2.
